Source: patent US20120115202A1

Target: PsaJF mutant PSI from Synechocystis sp. PCC 6803 (Synechocystis sp. PCC 6803) (UniProt Q55329)
Experiment: cell-based or functional assay

**Q.** With “horse heart cytochrome c (from UniProt P00004 2-105)” as the substance, how does the rate of electron donation (light-induced cytochrome c oxidation, absorbance difference 550-540 nm) (fold faster than to the wild-type PSI) read?
**A.** > 5
